{"source": "patent US20260022153A1", "about": "(AMIDEBIO, LLC, priority 2017, published 2026)", "key": {"IGF1 receptor (IGF1R)": {"target": "IGF1 receptor (IGF1R) (Homo sapiens, UniProt P08069)", "assay": "Binding affinity of insulin analogs to the IGF1 receptor (IGF1R)", "conditions": "in the absence of glucose"}, "[1]": {"conditions": "after one year in acidic formulations; cited from earlier work"}, "insulin receptor": {"target": "insulin receptor (Homo sapiens, UniProt P06213)", "conditions": "cited from earlier work"}}}
{"substance": "SEQ ID NO: 5: single chain insulin analog […] (FVDQHLCGSHLVEALYLVCGERGFFYTPKTYDGKGIVEQCCTSICSLYQLENYCG)", "values": [{"measurement": "Kd", "setting": "IGF1 receptor (IGF1R)", "result": 30.4, "unit": "nM"}]}
{"substance": "insulin", "values": [{"measurement": "Kd", "setting": "IGF1 receptor (IGF1R)", "result": 5.66, "unit": "nM"}, {"measurement": "AsnA21 deamidation", "setting": "[1]", "result": "20-30%"}]}
{"substance": "Wakayama mutation ValA3Leu: insulin with a valine to leucine substitution at position A3 of Insulin Chain A, a naturally occurring mutation", "values": [{"measurement": "fold lower affinity for the insulin receptor compared to wildtype insulin", "setting": "insulin receptor", "result": 500, "unit": "fold"}]}
{"substance": "SEQ ID NO: 7: single chain insulin analog […] (FVGQHLCGSHLVEALYLVCGERGFFYTPKTYDGKGIVEQCCTSICSLYQLENYCG)", "values": [{"measurement": "Kd", "setting": "IGF1 receptor (IGF1R)", "result": 26.8, "unit": "nM"}]}
